These results are taken from PMC6910952 (Nature Communications, 2019).

As usually defined, the Kd is a measure of binding affinity in units of concentration. A lower Kd goes with a tighter complex.

Common to all, as to details: both partners purified
For experiment [1], the target named is T1, Cdc48 (recombinant, hexameric) (Saccharomyces cerevisiae, UniProt P25694 1-835).
T1 construct: Cdc48 AAA-family ATPase of Saccharomyces cerevisiae; source: E. coli Rosetta (DE3) (pET21a), purified (TALON resin, Superose 6)
Briefly: pull-down; GST-yNpl4 (0.5 μM, wild type or mutant) on Glutathione Sepharose 4B beads, 1 h at room temperature with 0.5 μM yUfd1, 3 μM Cdc48 (0.5 μM hexamer) and 1 μg K48 chains in 100 μL 50 mM Tris-HCl pH 7.5, 100 mM NaCl, 10% glycerol, 0.1% Triton X-100; chains detected by anti-Ub immunoblot, proteins by Ponceau S. In general terms: In western blotting, separated proteins are transferred to a membrane and probed.

For experiment [2], the target named is T1, Cdc48 (recombinant, hexameric). Briefly: pull-down; GST-yUfd1 (0.5 μM) on Glutathione Sepharose 4B beads with His6-tagged Npl4 (wild type or mutant), Cdc48 and K48 chains; same binding buffer (Supplementary Fig. 3b).
In experiment [3] the target is T2, yNpl4^113–580 (E123A K124A E125A) (Saccharomyces cerevisiae, UniProt P33755 113-580, E123A | K124A | E125A).
T2 construct: not shown: GST, N-terminal, cleaved
T2 sequence (looked up): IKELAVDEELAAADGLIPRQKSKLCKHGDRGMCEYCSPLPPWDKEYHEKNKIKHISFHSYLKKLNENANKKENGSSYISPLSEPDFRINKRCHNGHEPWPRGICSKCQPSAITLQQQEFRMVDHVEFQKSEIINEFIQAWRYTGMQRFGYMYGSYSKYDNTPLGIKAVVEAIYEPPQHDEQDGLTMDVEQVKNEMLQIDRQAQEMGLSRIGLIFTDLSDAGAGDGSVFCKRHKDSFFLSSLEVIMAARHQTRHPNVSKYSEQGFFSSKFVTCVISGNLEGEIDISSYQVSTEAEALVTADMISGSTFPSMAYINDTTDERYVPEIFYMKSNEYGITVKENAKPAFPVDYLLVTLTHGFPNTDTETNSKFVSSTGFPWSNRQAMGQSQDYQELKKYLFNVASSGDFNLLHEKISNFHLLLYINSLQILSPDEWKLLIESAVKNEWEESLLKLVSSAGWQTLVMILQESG
Put plainly: crystal structure; yNpl4^113–580 (E123A K124A E125A)–yUfd1^288–305 complex; sitting drop, 20 °C, 90 mM Bis-Tris-HCl pH 7.5, 19% PEG3350, 10 mM ATP.

A further experiment deals with T3, M1-Ub4 (UniProt P0CG48 1-76; P0CG48 1-76; P0CG48 1-76; P0CG48 1-76).
T3 construct: ubiquitin (Ub), first unit; ubiquitin (Ub), second unit; ubiquitin (Ub), third unit; ubiquitin (Ub), fourth unit
Put plainly: SPR; Biacore T200, 25 °C; wild-type or mutant His6-yNpl4^113–580, yUfd1–His6-yNpl4^113–580 or His6-hNpl4 immobilized on a CM5 chip by amine coupling; Ub2 or Ub4 in two-fold dilution series injected 60 s at 10 μL per min in 10 mM HEPES-NaOH pH 7.5, 150 mM NaCl, 0.05% Tween-20, 0.5 g/L BSA; equilibrium Kd.

The target in the next experiment is T4, M1-Ub2 (UniProt P0CG48 1-76; P0CG48 1-76).
T4 construct: ubiquitin (Ub), first unit; ubiquitin (Ub), second unit
The experiment is described as above.

Residue numbers refer to the chain shown, from its start. “And” between values parts separate entries of the source, which are not always exact repeats. Equal entries are not always repeated.

T1 sequence (P25694 whole entry): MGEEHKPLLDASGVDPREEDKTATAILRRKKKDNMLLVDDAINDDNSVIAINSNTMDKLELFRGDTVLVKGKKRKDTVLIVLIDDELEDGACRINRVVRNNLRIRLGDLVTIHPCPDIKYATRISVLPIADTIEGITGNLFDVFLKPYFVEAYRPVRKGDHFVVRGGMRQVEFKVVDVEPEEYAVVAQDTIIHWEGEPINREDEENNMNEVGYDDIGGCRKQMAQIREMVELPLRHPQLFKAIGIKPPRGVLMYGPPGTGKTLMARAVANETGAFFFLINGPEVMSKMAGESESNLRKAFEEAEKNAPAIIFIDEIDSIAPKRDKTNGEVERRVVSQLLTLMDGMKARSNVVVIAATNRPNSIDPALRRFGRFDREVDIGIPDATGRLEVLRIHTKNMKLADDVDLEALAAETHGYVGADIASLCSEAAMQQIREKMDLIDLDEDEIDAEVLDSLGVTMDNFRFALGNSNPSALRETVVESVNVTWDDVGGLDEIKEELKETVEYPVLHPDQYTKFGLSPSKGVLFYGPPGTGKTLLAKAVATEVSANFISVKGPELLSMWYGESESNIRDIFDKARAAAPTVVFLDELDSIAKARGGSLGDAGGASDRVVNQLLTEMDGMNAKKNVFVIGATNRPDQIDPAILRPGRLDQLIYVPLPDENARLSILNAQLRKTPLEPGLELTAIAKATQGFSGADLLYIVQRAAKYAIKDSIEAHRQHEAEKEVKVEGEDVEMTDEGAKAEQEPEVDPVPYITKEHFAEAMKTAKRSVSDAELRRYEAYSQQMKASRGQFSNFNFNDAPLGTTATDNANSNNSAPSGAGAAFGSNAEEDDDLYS

B1: GST-yNpl4 T571A (natural protein, Saccharomyces cerevisiae, UniProt P33755 1-580, looked up)
chain: MLIRFRSKNGTHRVSCQENDLFGTVIEKLVGNLDPNADVDTFTVCEKPGQGIHAVSELADRTVMDLGLKHGDMLILNYSDKPANEKDGVNVEIGSVGIDSKGIRQHRYGPLRIKELAVDEELEKEDGLIPRQKSKLCKHGDRGMCEYCSPLPPWDKEYHEKNKIKHISFHSYLKKLNENANKKENGSSYISPLSEPDFRINKRCHNGHEPWPRGICSKCQPSAITLQQQEFRMVDHVEFQKSEIINEFIQAWRYTGMQRFGYMYGSYSKYDNTPLGIKAVVEAIYEPPQHDEQDGLTMDVEQVKNEMLQIDRQAQEMGLSRIGLIFTDLSDAGAGDGSVFCKRHKDSFFLSSLEVIMAARHQTRHPNVSKYSEQGFFSSKFVTCVISGNLEGEIDISSYQVSTEAEALVTADMISGSTFPSMAYINDTTDERYVPEIFYMKSNEYGITVKENAKPAFPVDYLLVTLTHGFPNTDTETNSKFVSSTGFPWSNRQAMGQSQDYQELKKYLFNVASSGDFNLLHEKISNFHLLLYINSLQILSPDEWKLLIESAVKNEWEESLLKLVSSAGWQALVMILQESG
notes: Npl4 of Saccharomyces cerevisiae (yNpl4), full length; source: E. coli Rosetta (DE3) (pGEX-6P1), purified (Glutathione Sepharose FF, Resource Q); not shown: GST, N-terminal, kept
With B1, the binding result in experiment [1] is “binds”.

B2: GST-yNpl4 M574Q (natural protein, Saccharomyces cerevisiae, UniProt P33755 1-580, looked up)
chain: B1 chain with A571T, M574Q
notes: as for B1
B2: the binding result in experiment [1] is recorded as “binds”.

B3: GST-yNpl4 A494F (natural protein, Saccharomyces cerevisiae, UniProt P33755 1-580, looked up)
chain: B1 chain with A494F, A571T
notes: as for B1
On to B3, for which the binding result in experiment [1] is “binds”.

B4: GST-yNpl4 S498R (natural protein, Saccharomyces cerevisiae, UniProt P33755 1-580, looked up)
chain: B1 chain with S498R, A571T
notes: as for B1
Take B4: the binding result in experiment [1] is “binds”.

B5: GST-yNpl4 I575A (natural protein, Saccharomyces cerevisiae, UniProt P33755 1-580, looked up)
chain: B1 chain with A571T, I575A
notes: as for B1
Consider B5, for which, in experiment [1], the binding result is reported as “binds”.

B6: GST-yNpl4 M574A (natural protein, Saccharomyces cerevisiae, UniProt P33755 1-580, looked up)
chain: B1 chain with A571T, M574A
notes: as for B1
For the molecule B6, in experiment [1], the binding result is reported as “binds”.

B7: GST-yUfd1 (full length) (natural protein, Saccharomyces cerevisiae, UniProt P53044 1-361, looked up)
chain: MFSGFSSFGGGNGFVNMPQTFEEFFRCYPIAMMNDRIRKDDANFGGKIFLPPSALSKLSMLNIRYPMLFKLTANETGRVTHGGVLEFIAEEGRVYLPQWMMETLGIQPGSLLQISSTDVPLGQFVKLEPQSVDFLDISDPKAVLENVLRNFSTLTVDDVIEISYNGKTFKIKILEVKPESSSKSICVIETDLVTDFAPPVGYVEPDYKALKAQQDKEKKNSFGKGQVLDPSVLGQGSMSTRIDYAGIANSSRNKLSKFVGQGQNISGKAPKAEPKQDIKDMKITFDGEPAKLDLPEGQLFFGFPMVLPKEDEESAAGSKSSEQNFQGQGISLRKSNKRKTKSDHDSSKSKAPKSPEVIEID
notes: Ufd1 of Saccharomyces cerevisiae (yUfd1), full length; also called GST-Ufd1; source: E. coli Rosetta (DE3) (pGEX-6P1), purified (Glutathione Sepharose FF, Resource Q); not shown: GST, N-terminal, kept
As to B7, the binding result in experiment [2] was “binds”.

B8: yUfd1^288–305 (peptide, UniProt P53044 288-305, looked up)
chain: EPAKLDLPEGQLFFGFPM
notes: also called yUfd1 NBM; not shown: GST, N-terminal, cleaved
Consider B8, for which the binding result in experiment [3] is recorded as “binds”.

B9: His6-yNpl4^113–580 (domain or fragment, Saccharomyces cerevisiae, UniProt P33755 113-580, looked up)
chain: T2 sequence (looked up) with A11E, A12K, A13E
notes: codon-optimized synthetic cDNA; also called WT; WT #1; source: E. coli Rosetta (DE3), purified (Ni-NTA, Resource Q); also in lysate, mixed with cells expressing GST-yUfd1 for co-purification; not shown: His6, N-terminal, kept
As to B9, the Kd is 139 µM and 103 µM with M1-Ub4; 333 µM and 420 µM with M1-Ub2.

B10: yUfd1–His6-yNpl4^113–580 complex (complex, Saccharomyces cerevisiae)
chain 1: B7 chain
chain 2: T2 sequence (looked up) with A11E, A12K, A13E
notes: Ufd1 of Saccharomyces cerevisiae (yUfd1), full-length gene in pGEX-6P1; also called yUfd1–yNpl4; not shown: GST, N-terminal, cleaved; His6, N-terminal, kept
B10 registered a Kd in the experiment with M1-Ub4 of 151 µM.

B11: His6-yNpl4^113–580 S498R (domain or fragment, Saccharomyces cerevisiae, UniProt P33755 113-580, looked up)
chain: T2 sequence (looked up) with A11E, A12K, A13E, S386R
notes: source: E. coli Rosetta (DE3), purified (Ni-NTA, Resource Q); not shown: His6, N-terminal, kept
With B11, in the experiment with M1-Ub4, the Kd came out at 136 µM.
